# From paper PMC4547098 (eLife, 2015)
# B1: Pikp-HMA domain made in Sf9 cells for crystallisation (domain or fragment, rice (Oryza sativa), UniProt E9KPB5 186-258, looked up)
# chain: GLKQKIVIKVAMEGNNCRSKAMALVASTGGVDSVALVGDLRDKIEVVGYGIDPIKLISALRKKVGDAELLQVS
# notes: also called Pikp1-HMA; not shown: 6xHis+SUMO, N-terminal, cleaved
# B2: Pikp-HMA domain (HMA integrated domain of the rice NLR Pikp-1) (domain or fragment)
# chain: B1 chain
# notes: also called Pikp1-HMA; Pikp-1 HMA; not shown: 6xHis+SUMO, N-terminal, cleaved
# Experiments:
# [1] = biological target: the molecule itself; experiment: crystal structure; Pikp-HMA alone; 0.1 M MIB buffer pH 5.0, 25% PEG 1500; dimer in the crystal
# [2] = biological target: AVR-PikD with non-cleavable C-terminal 6xHis tag (pOPINE) (Magnaporthe oryzae, UniProt C4B8B8 22-113); experiment: SPR; Biacore T200, 25°C, multi-cycle kinetics; […]; 50 mM HEPES pH 7.5, 150 mM NaCl, 0.1% Tween 20; […]; conditions: both partners purified
Binder,stoichiometry N [1],Kd [2] [nM]
B1,2,–
B2,–,31 ± 2
